# Paper PMC12126490, “The HP1 box of KAP1 organizes HP1α for silencing of endogenous retroviral elements in embryonic stem cells” (Nature Communications, 2025)
# B1: GFP-KAP1FR: GFP labeled KAP1 fragment (aa 114–834 of KAP1) (protein)
# chain: VVDCPVCKQQCFSKDIVENYFMRDSGSKAATDAQDANQCCTSCEDNAPATSYCVECSEPLCETCVEAHQRVKYTKDHTVRSTGPAKSRDGERTVYCNVHKHEPLVLFCESCDTLTCRDCQLNAHKDHQYQFLEDAVRNQRKLLASLVKRLGDKHATLQKSTKEVRSSIRQVSDVQKRVQVDVKMAILQIMKELNKRGRVLVNDAQKVTEGQQERLERQHWTMTKIQKHQEHILRFASWALESDNNTALLLSKKLIYFQLHRALKMIVDPVEPHGEMKFQWDLNAWTKSAEAFGKIVAERPGTNSTGPAPMAPPRAPGPLSKQGSGSSQPMEVQEGYGFGSGDDPYSSAEPHVSGVKRSRSGEGEVSGLMRKVPRVSLERLDLDLTADSQPPVFKVFPGSTTEDYNLIVIERGAAAAATGQPGTAPAGTPGAPPLAGMAIVKEEETEAAIGAPPTATEGPETKPVLMALAEGPGAEGPRLASPSGSTSSGLEVVAPEGTSAPGGGPGTLDDSATICRVCQKPGDLVMCNQCEFCFHLDCHLPALQDVPGEEWSCSLCHVLPDLKEEDGSLSLDGADSTGVVAKLSPANQRKCERVLLALFCHEPCRPLHQLATDSTFSLDQPGGTLDLTLIRARLQEKLSPPYSSPQEFAQDVGRMFKQFNKLTEDKADVQSIIGLQRFFETRMNEAFGDTKFSAVLVEPPPMSLPGAGLSSQELSGGPGDG
# modifications: left off: GFP, end not stated, kept
# Legend:
# [1] = test system: endogenous HP1α in KAP1^−/− ESCs; experiment: immunofluorescence of endogenous HP1α; assay type: cell-based; settings: KAP1^−/− mouse ESCs stably expressing the GFP-labeled construct, anti-HP1α antibody, DAPI
# Experimental: The constructs coding for GFP-KAP1RF and the P486A/V488A/L490A mutant were transfected into 1 ×10^5 KAP1^−/− mouse ESCs using Lipofectamine 3000 (Invitrogen). Forty-eight hours post-transfection, cells were trypsinized and plated at a colony density in selection medium containing 10 μg/ml blasticidin (Thermo Fisher Sci) for one week. The selection process was repeated once to establish stable GFP-KAP1 expressing cell lines.
# For immunostaining, mouse ESCs were cultured on Geltrex-coated coverslips (Life Technologies) in DMEM supplemented with 16% fetal bovine serum, 0.1 mM β-mercaptoethanol (Invitrogen), 2 mM L-glutamine, 1× MEM non-essential amino acids, 100 U/ml penicillin, 100 µg/ml streptomycin (PAA), 2i (1 μM PD032591 and 3 μM CHIR99021 (Axon Medchem, Netherlands) and 1000 U/ml recombinant LIF (Millipore). Coverslips were rinsed twice with PBS (pH 7.4; 140 mM NaCl, 2.7 mM KCl, 6.5 mM Na2HPO4, 1.5 mM KH2PO4), followed by fixation with 3.7% formaldehyde (Sigma) for 10 min. Fixed cells were washed three times (10 min each) with PBST (PBS + 0.01% Tween-20), permeabilized in 0.5% Triton X-100 for 10 min, and washed twice (10 min each) with PBST. Primary and secondary antibodies were prepared in blocking solution (PBST + 3% BSA). […]
# [2] = test system: DNA-induced HP1α phase separated droplets; experiment: in vitro droplet assay; settings: 50 µM HP1α, 0.18 µM 601 DNA
# Text: For droplet assays, cDNA of full-length HP1α was cloned into a pET28 expression vector. His-tag fusion HP1α was expressed in E. coli and purified as in ref. [51]. cDNA of the KAP1FR fragment (aa 114–834) was cloned into a pCAG-GFP expression vector, and the P486A/V488A/L490A mutant of GFP-KAP1FR was generated using overlap extension PCR. Purification of GFP-KAP1FR proteins was described in ref. [52].
# For the droplet assay, Widom 601 DNA was amplified by PCR using a plasmid coding for 12× 601 DNA with primers as follows: 601 DNA_F: […] and 601 DNA_R: TGCACAGGATGTATATATCTGACAC. HP1α was concentrated to ~10 µg/µl using Amicon concentrators. The buffer changes for both HP1α and GFP-KAP1FR solutions were carried out using Zeba™ Spin Desalting Columns with a buffer containing 20 mM HEPES at pH 7.2, 75 mM KCl, and 1 mM DTT. For visualization of His-tagged-HP1α within the droplets, 500 ng of protein was labeled with the 647 N fluorescent label using the Monolith NT™ Protein Labeling Kit RED-NHS from Nano Temper. To form HP1α droplets, 50 µM of HP1α was incubated with 0.18 µM of 601 DNA for 3 min and dropped into ibidi chamber (µ-Slide 18 Well). Subsequently, 50 ng of the labeled HP1α and 100 ng of GFP-KAP1FR (wild type or mutant) were added into HP1α/DNA droplets. The images of the droplets were collected using a Nikon TiE microscope equipped with a Yokogawa CSU-W1 spinning-disk confocal unit (50 μm pinhole size), an Andor Borealis illumination unit, Andor ALC600 laser beam combiner (405 nm/488 nm/561 nm/640 nm), Andor IXON 888 Ultra EMCCD camera, and a Nikon 100×/1.45 NA oil immersion objective. The size and intensity of HP1α phase-separated droplets were analyzed using ImageJ.
# [3] = test system: dsRed-HP1α in E14 ESC cells; experiment: heterochromatin half-FRAP (MOCHA-FRAP); assay type: cell-based, mouse; settings: bleached and non-bleached half of heterochromatin compartment, living ESCs
# Experimental: E14 ESC cells were transfected with 3 µg of pdsRed-HP1α and either pGFP or pGFP-KAP1FR using AMAXA nucleofector (Lonza), seeded in slide chambers containing high precision glass overnight at 37 °C and 5% CO2. Samples were analyzed using a Leica SP5-II confocal point scanner microscope equipped with 488 nm Argon ion and 561 nm DPSS 50 mW lasers, a AOBS beams splitter and a HyD Hybrid detector. Cells were first scanned for GFP^+ using a HCX PL APO 100x Corr CS objective, and a section of 64 × 64 pixels with 0.8-0.6 µm/px size containing one heterochromatin compartment of these cells was selected. Subsequently, a point region of interest was used to bleach the half of the heterochromatin compartment for 100 ms at maximum intensity of the laser (488 and 561 nm). The recovery was documented for 15 s with a frame rate of approximately 100 ms/frame. MOCHA-FRAP analysis was performed as in ref. [36].
molecule,measurement,setting,value
B1,distribution of endogenous HP1α (puncta),[1],Endogenous HP1α formed large puncta and colocalized with GFP-KAP1FR
same,sequestration of 647N labeled HP1α into droplets,"[2]; 20 mM HEPES pH 7.2, 75 mM KCl, 1 mM DTT, 100 ng GFP-KAP1FR, 50 ng labeled HP1α",sequestered HP1a into the interior of droplets within a minute
same,localization of GFP-KAP1FR in droplets,[2]; confocal microscopy,concentrated at the periphery of the droplets
same,fluorescence recovery of HP1α,[3],neither the bleached half (thin purple line) nor the non-bleached half (thick purple line) fully recovered their fluorescence
